Earlier results as cited in paper PMC10453832.

Biological target: F-actin (Oryctolagus cuniculus) (UniProt P68135)

β-III-spectrin ABD (from UniProt O15020)
Kd: 75 nM
